We go through two molecules from patent US20140087995A1 (published 2014).

By IC50 is commonly meant the concentration that gives 50% inhibition.

In assay [1] the target is T1, human calcitonin receptor (human, UniProt P30988 25-474).
T1 construct: whole, on cells; also called hCTR; hCT
T1 sequence (looked up): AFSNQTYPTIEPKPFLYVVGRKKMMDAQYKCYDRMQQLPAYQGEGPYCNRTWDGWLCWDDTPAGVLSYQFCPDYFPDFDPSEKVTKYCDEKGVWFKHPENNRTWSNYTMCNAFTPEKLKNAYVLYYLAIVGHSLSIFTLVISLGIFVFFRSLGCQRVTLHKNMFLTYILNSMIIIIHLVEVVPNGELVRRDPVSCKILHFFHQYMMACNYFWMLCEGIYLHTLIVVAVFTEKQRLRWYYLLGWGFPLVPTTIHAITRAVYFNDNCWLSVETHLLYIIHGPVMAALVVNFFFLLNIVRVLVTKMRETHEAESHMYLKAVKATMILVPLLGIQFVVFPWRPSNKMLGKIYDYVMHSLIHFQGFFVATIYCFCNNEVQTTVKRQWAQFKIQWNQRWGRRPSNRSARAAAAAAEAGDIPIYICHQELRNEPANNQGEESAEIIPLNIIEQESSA
The assay can be described thus: ratio of IC50 at hCTR to IC50 at the human amylin receptor (reference). The procedure, abridged: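 IC₅₀ values were derived by one-site competition analysis of SPA counts. Cell membranes (35 ng/μL) with SPA beads were incubated with test compounds for 120 min at 25° C in Hepes buffer, pH 7.4, containing CaCl2, MgCl₂, OA and Tween20.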

The target in assay [2] is T2, human amylin receptor (amylin 3(a) receptor: human calcitonin receptor plus RAMP-3) (human, UniProt P30988 25-474; O60896 24-148).
T2 construct: whole, on cells; the species of RAMP-3 is told only through the name 'human amylin receptor'; also called hAmylin-R; hAmylinR
T2 sequence (looked up) 1: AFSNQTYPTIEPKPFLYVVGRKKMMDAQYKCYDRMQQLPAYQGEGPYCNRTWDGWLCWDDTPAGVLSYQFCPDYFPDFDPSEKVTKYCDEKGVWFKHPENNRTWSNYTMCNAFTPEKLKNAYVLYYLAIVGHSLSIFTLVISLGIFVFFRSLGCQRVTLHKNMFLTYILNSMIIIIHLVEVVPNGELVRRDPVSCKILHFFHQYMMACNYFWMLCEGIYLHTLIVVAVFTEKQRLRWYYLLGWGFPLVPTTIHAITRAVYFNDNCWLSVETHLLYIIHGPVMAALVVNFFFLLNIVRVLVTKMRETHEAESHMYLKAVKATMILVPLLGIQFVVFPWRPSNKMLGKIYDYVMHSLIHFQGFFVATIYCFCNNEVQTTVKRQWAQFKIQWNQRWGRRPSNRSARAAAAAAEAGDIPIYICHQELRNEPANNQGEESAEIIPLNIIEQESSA
T2 sequence (looked up) 2: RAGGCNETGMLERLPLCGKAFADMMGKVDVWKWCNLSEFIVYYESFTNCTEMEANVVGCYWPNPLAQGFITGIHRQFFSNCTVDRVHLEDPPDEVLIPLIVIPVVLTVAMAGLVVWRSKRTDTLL
Put plainly: SPA competition binding, membranes with human amylin 3(a) receptor, displacement of 125I-rat amylin (Assay V). The procedure:
(§1) The binding assay was performed using scintillation proximity assay (SPA) beads (RPNQ0001) from PerkinElmer and cell membranes from the Amylin 3(a)/CRE-luc cells (as described in Assay (II)) were used. Membranes were prepared in the following way; the cells were rinsed with PBS and incubated with Versene for approximately 5 min before harvesting. The cells were flushed with PBS and the cell-suspension was centrifuged for 5 min at 1000 rpm. Cells were homogenized (ultrathurrax) in a buffer containing 20 mM Na-HEPES and 10 mM EDTA (pH 7.4) and centrifuged at 20.000 rpm for 15 min. The resulting pellet was resuspended, homogenized and centrifuged (20.000 rpm, 15 min) in a buffer containing 20 mM Na-HEPES and 0.1 mM EDTA (pH 7.4, buffer 2). The resulting pellet was resuspended in buffer 2 and protein concentration was measured (BCA protein Assay, Pierce). The homogenate was kept cold during the whole procedure. The membranes were kept at −80° C. until use. The assay was performed in a 384 well Optiplate (PerkinElmer) in a total volume of 40 ul. Membranes were mixed with SPA beads. Final concentration of membranes 35 ng/μL final and SPA beads was 0.05 mg/well. Test-compounds were dissolved in DMSO and further diluted in assay buffer (50 mM Hepes, pH 7.4, 1 mM CaCl2, 5 mM MgCl₂, 0.1% OA and 0.02% Tween20). […] The final mixture was incubated with shaking at 400 rpm for 120 min at 25° C. prior to centrifugation (1500 rpm, 10 min). Samples were analyzed on TopCounter™ (Packard). The IC₅₀ was calculated using (one site binding competition analysis) GraphPad Prism5 as a measure of receptor affinity.
A general note: Loss of bound radioactivity is the signal in a displacement assay; it reports binding, not function.

The target in assay [3] is T1, human calcitonin receptor. The assay can be described thus: SPA competition binding, membranes with human calcitonin receptor, displacement of 125I-calcitonin (Assay VII). The procedure, abridged:
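BHK hCTR membranes 35 ng/μL + SPA beads 0.05 mg/well; buffer 50 mM Hepes pH 7.4, 1 mM CaCl2, 5 mM MgCl₂, 0.1% OA, 0.02% Tween20. 120 min, 25° C., shaking. Scintillation count; IC50 by one-site binding competition.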

In assay [4] the target is T3, human amylin 3(a) receptor (human calcitonin receptor co-expressed with RAMP-3) (human, UniProt P30988 25-474; O60896 24-148, limits assumed).
T3 sequence (looked up) 1: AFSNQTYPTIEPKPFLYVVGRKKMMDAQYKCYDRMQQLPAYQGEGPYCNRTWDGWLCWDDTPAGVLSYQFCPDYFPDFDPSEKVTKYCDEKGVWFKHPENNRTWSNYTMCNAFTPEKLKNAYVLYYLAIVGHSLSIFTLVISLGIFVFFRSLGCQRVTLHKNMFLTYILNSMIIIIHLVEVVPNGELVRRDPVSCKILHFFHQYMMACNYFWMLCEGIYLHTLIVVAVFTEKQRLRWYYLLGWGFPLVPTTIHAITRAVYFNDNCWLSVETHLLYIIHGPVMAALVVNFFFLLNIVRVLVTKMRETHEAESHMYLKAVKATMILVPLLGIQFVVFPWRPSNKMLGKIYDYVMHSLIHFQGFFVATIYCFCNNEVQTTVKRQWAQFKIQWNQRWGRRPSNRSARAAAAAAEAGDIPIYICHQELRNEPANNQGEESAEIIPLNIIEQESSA
T3 sequence (looked up) 2: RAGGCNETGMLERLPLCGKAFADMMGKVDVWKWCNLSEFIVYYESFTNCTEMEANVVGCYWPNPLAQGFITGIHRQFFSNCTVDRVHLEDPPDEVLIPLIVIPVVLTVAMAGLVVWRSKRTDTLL
The assay can be described thus: cell-based or functional assay.

Assay [5] addresses T4, human calcitonin receptor (human, UniProt P30988 25-474).
T4 sequence (looked up): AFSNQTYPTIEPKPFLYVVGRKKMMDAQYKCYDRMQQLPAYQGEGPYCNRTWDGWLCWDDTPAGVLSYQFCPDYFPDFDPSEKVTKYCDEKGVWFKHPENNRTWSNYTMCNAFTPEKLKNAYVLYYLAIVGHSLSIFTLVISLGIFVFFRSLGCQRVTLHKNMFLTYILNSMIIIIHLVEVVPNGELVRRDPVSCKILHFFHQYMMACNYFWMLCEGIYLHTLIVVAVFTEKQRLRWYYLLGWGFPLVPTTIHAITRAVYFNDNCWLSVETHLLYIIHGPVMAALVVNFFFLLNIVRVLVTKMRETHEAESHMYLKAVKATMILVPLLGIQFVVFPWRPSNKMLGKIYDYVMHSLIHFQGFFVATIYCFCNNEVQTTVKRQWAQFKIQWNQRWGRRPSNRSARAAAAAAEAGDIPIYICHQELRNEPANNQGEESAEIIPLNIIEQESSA
The assay can be described thus: cell-based or functional assay.

Assay [6] concerns the target T3, human amylin 3(a) receptor (human …). The assay can be described thus: SPA competition binding, membranes of Amylin 3(a)/CRE-luc BHK cells, displacement of 125I-rat amylin (Assay (V)). The procedure:
as §1

Numbered stars: 1 amine (or outer) side, 2 acyl side, 3 side chain; on linkers, the order of the positions; unused ones are H or OH. Bridge positions count the residues as written; N and C are the ends. Side chains are listed from the residue outwards. Ends that are not written are not given here. * marks the point of attachment. C20 diacid = O=C(O)CCCCCCCCCCCCCCCCCCC(=O)*; γGlu = O=C(O)[C@H](CCC(=O)[*:2])N[*:1]

B1: N^ε1-[(4S)-4-carboxy-4-[[(4S)-4-carboxy-4-(19-carboxynonadecanoylamino)butanoyl]amino]butanoyl]-[Asp14,Arg17,Pro21,Pro27,Asp35]-h-amylin (peptide)
peptide: K([γGlu-γGlu-C20 diacid])CNTATCATQRLADFLRHSSPNFGAIPSSTNVGSDTY-NH2
modifications: disulfide 2-7; N-terminus assumed
SMILES: CC[C@H](C)[C@H](NC(=O)[C@H](C)NC(=O)CNC(=O)[C@H](Cc1ccccc1)NC(=O)[C@H](CC(N)=O)NC(=O)[C@@H]1CCCN1C(=O)[C@H](CO)NC(=O)[C@H](CO)NC(=O)[C@H](Cc1c[nH]cn1)NC(=O)[C@H](CCCNC(=N)N)NC(=O)[C@H](CC(C)C)NC(=O)[C@H](Cc1ccccc1)NC(=O)[C@H](CC(=O)O)NC(=O)[C@H](C)NC(=O)[C@H](CC(C)C)NC(=O)[C@H](CCCNC(=N)N)NC(=O)[C@H](CCC(N)=O)NC(=O)[C@@H](NC(=O)[C@H](C)NC(=O)[C@@H]1CSSC[C@H](NC(=O)[C@@H](N)CCCCNC(=O)CC[C@H](NC(=O)CC[C@H](NC(=O)CCCCCCCCCCCCCCCCCCC(=O)O)C(=O)O)C(=O)O)C(=O)N[C@@H](CC(N)=O)C(=O)N[C@@H]([C@@H](C)O)C(=O)N[C@@H](C)C(=O)N[C@@H]([C@@H](C)O)C(=O)N1)[C@@H](C)O)C(=O)N1CCC[C@H]1C(=O)N[C@@H](CO)C(=O)N[C@@H](CO)C(=O)N[C@H](C(=O)N[C@@H](CC(N)=O)C(=O)N[C@H](C(=O)NCC(=O)N[C@@H](CO)C(=O)N[C@@H](CC(=O)O)C(=O)N[C@H](C(=O)N[C@@H](Cc1ccc(O)cc1)C(N)=O)[C@@H](C)O)C(C)C)[C@@H](C)O
notes: also called compound 2
As for B1, the “Ratio hCT/hAmylin binding” value in assay [1] amounted to 47.5. Further, the IC50 in assay [2] worked out at 0.411 nM; in assay [3], 19.5 nM.

B2: N^ε1-[(4S)-4-carboxy-4-(19-carboxynonadecanoylamino)butanoyl]-[Glu14,Arg17,Pro21,Pro27,His34,Glu35]-h-amylin (peptide)
peptide: K([γGlu-C20 diacid])CNTATCATQRLAEFLRHSSPNFGAIPSSTNVGHETY-NH2
modifications: disulfide 2-7; N-terminus assumed
SMILES: CC[C@H](C)[C@H](NC(=O)[C@H](C)NC(=O)CNC(=O)[C@H](Cc1ccccc1)NC(=O)[C@H](CC(N)=O)NC(=O)[C@@H]1CCCN1C(=O)[C@H](CO)NC(=O)[C@H](CO)NC(=O)[C@H](Cc1c[nH]cn1)NC(=O)[C@H](CCCNC(=N)N)NC(=O)[C@H](CC(C)C)NC(=O)[C@H](Cc1ccccc1)NC(=O)[C@H](CCC(=O)O)NC(=O)[C@H](C)NC(=O)[C@H](CC(C)C)NC(=O)[C@H](CCCNC(=N)N)NC(=O)[C@H](CCC(N)=O)NC(=O)[C@@H](NC(=O)[C@H](C)NC(=O)[C@@H]1CSSC[C@H](NC(=O)[C@@H](N)CCCCNC(=O)CC[C@H](NC(=O)CCCCCCCCCCCCCCCCCCC(=O)O)C(=O)O)C(=O)N[C@@H](CC(N)=O)C(=O)N[C@@H]([C@@H](C)O)C(=O)N[C@@H](C)C(=O)N[C@@H]([C@@H](C)O)C(=O)N1)[C@@H](C)O)C(=O)N1CCC[C@H]1C(=O)N[C@@H](CO)C(=O)N[C@@H](CO)C(=O)N[C@H](C(=O)N[C@@H](CC(N)=O)C(=O)N[C@H](C(=O)NCC(=O)N[C@@H](Cc1c[nH]cn1)C(=O)N[C@@H](CCC(=O)O)C(=O)N[C@H](C(=O)N[C@@H](Cc1ccc(O)cc1)C(N)=O)[C@@H](C)O)C(C)C)[C@@H](C)O
notes: also called compound 107
As to B2, the “hAmylin-R funct. EC50” value in assay [4] was found to be 0.405 nM. In addition, in assay [5], the “Ratio hCT/hAmylin funct.” value was 6.3 and the “hCTR funct. EC50” value worked out at 2.54 nM. For the same molecule, the IC50 in assay [6] stood at 0.387 nM.
